Sequences and labels used below:
B1: Mitochondrial Rho GTPase 1 (Homo sapiens), Q8IXI2 (parent)
chain: MKKDVRILLVGEPRVGKTSLIMSLVSEEFPEEVPPRAEEITIPADVTPERVPTHIVDYSEAEQSDEQLHQEISQANVICIVYAVNNKHSIDKVTSRWIPLINERTDKDSRLPLILVGNKSDLVEYSSMETILPIMNQYTEIETCVECSAKNLKNISELFYYAQKAVLHPTGPLYCPEEKEMKPACIKALTRIFKISDQDNDGTLNDAELNFFQRICFNTPLAPQALEDVKNVVRKHISDGVADSGLTLKGFLFLHTLFIQRGRHETTWTVLRRFGYDDDLDLTPEYLFPLLKIPPDCTTELNHHAYLFLQSTFDKHDLDRDCALSPDELKDLFKVFPYIPWGPDVNNTVCTNERGWITYQGFLSQWTLTTYLDVQRCLEYLGYLGYSILTEQESQASAVTVTRDKKIDLQKKQTQRNVFRCNVIGVKNCGKSGVLQALLGRNLMRQKKIREDHKSYYAINTVYVYGQEKYLLLHDISESEFLTEAEIICDVVCLVYDVSNPKSFEYCARIFKQHFMDSRIPCLIVAAKSDLHEVKQEYSISPTDFCRKHKMPPPQAFTCNTADAPSKDIFVKLTTMAMYPHVTQADLKSSTFWLRASFGATVFAVLGFAMYKALLKQR
partner: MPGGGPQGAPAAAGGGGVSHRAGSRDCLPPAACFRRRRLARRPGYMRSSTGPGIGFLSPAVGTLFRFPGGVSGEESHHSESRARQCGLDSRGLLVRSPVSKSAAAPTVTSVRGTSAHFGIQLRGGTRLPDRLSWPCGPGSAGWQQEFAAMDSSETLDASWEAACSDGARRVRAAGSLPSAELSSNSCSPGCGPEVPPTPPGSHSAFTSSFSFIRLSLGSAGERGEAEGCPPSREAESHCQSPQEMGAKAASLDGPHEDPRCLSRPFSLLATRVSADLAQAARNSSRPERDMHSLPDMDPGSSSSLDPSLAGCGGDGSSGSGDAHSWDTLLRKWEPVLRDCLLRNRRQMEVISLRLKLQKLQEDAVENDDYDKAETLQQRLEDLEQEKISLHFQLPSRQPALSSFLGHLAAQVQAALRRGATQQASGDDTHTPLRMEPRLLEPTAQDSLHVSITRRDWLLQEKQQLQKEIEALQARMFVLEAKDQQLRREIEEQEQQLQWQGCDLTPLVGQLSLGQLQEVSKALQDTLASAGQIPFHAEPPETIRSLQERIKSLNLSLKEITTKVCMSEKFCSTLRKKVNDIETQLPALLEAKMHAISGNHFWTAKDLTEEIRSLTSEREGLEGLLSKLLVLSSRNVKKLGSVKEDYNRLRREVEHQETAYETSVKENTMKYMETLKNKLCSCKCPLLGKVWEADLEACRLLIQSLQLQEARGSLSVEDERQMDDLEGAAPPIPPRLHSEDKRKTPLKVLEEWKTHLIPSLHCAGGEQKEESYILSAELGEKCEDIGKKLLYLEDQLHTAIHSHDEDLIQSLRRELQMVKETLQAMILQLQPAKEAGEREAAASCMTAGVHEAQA

This note sets out measurements from IntAct's records for PubMed 32637409.

In the assay the parent is B1. To be noted: with disc1_human DISC1, Q9NRI5.
P13V: the “effect of a mutation on the interaction” value is given as “increasing interaction”. As for T18N, the entry is “with no effect”.
